In article PMC9997659, “TLN1 contains a cancer-associated cassette exon that alters talin-1 mechanosensitivity” (The Journal of Cell Biology, 2023):
Several values for one entry are separate records, joined by “and”; a condition that tells them apart may be missing. Identical values can stand only once. Each block holds one molecule with its values, some of them ahead of it.

Experiments:
[1] = biological target: Human talin-1 R1R2-17b (residues 482-786 + additional 17 residues of exon 17b) (human) (UniProt Q9Y490); experiment: SEC; analytical gel filtration, Superdex 200 Increase 10/300 GL, run at room temperature; VD1 preincubated with talin R1R2 at a 3:1 ratio for 1 h at 37°C; 100 µl, 100-400 µM protein
[2] = biological target: T1, Human talin-1 R1R2-WT (residues 482-786) (human, UniProt Q9Y490 482-786); experiment: NMR titration; 1H,15N TROSY spectra of 100 µM R1R2 alone and with 300 µM RIAM peptide; 50 mM NaCl, 15 mM NaH2PO4, 6 mM Na2HPO4, 2 mM DTT, pH 6.5, 298K; conditions: both partners purified
T1 construct: talin-1 (TLN1), human, rod domains R1 and R2, residues 482-786 of the 2,541 amino acid protein; codon optimized synthetic gene in pET151; also called wild-type R1R2; talin R1R2-WT; source: E. coli BL21(DE3)*, purified (Nickel-NTA, TEV cleavage, HiTrap Q)
T1 sequence (Q9Y490 482-786): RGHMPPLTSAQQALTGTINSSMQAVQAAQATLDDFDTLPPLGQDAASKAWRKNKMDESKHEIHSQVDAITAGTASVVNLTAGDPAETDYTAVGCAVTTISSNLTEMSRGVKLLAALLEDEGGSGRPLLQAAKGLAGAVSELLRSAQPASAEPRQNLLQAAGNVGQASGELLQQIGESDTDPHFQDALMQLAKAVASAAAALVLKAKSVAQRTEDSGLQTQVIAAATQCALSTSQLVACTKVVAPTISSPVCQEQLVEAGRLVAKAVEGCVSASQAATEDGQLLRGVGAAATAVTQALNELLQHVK

stoichiometry N (vinculin per talin) [1]: 2 and 3
Molecule: Vinculin domain 1 (VD1) (from UniProt P18206 1-258) (domain or fragment)

binding result [2]: binds
B1: RIAM peptide (residues 4-30) (peptide)
peptide: SEDIDQMFSTLLGEMDLLTQSLGVDTC
notes: RIAM (Rap1-effector), residues 4-30 as printed; source: synthetic peptide (GLBiochem)
